{"source": "patent US20110166062A1", "about": "(INDIANA UNIVERSITY RESEARCH AND TECHNOLOGY, published 2011)", "binders": {"B1": {"name": "mt-140 (peptide)", "peptide": "YSQGTFTSDYSIYLDEQAAKEFVNWLLAGGPSSGAPPPS-NH2", "modifications": "lactam 16-20; N-terminus assumed", "SMILES": "CC[C@H](C)[C@H](NC(=O)[C@H](CO)NC(=O)[C@H](Cc1ccc(O)cc1)NC(=O)[C@H](CC(=O)O)NC(=O)[C@H](CO)NC(=O)[C@@H](NC(=O)[C@H](Cc1ccccc1)NC(=O)[C@@H](NC(=O)CNC(=O)[C@H](CCC(N)=O)NC(=O)[C@H](CO)NC(=O)[C@@H](N)Cc1ccc(O)cc1)[C@@H](C)O)[C@@H](C)O)C(=O)N[C@@H](Cc1ccc(O)cc1)C(=O)N[C@@H](CC(C)C)C(=O)N[C@@H](CC(=O)O)C(=O)N[C@H]1CCC(=O)NCCCC[C@@H](C(=O)N[C@@H](CCC(=O)O)C(=O)N[C@@H](Cc2ccccc2)C(=O)N[C@H](C(=O)N[C@@H](CC(N)=O)C(=O)N[C@@H](Cc2c[nH]c3ccccc23)C(=O)N[C@@H](CC(C)C)C(=O)N[C@@H](CC(C)C)C(=O)N[C@@H](C)C(=O)NCC(=O)NCC(=O)N2CCC[C@H]2C(=O)N[C@@H](CO)C(=O)N[C@@H](CO)C(=O)NCC(=O)N[C@@H](C)C(=O)N2CCC[C@H]2C(=O)N2CCC[C@H]2C(=O)N2CCC[C@H]2C(=O)N[C@@H](CO)C(N)=O)C(C)C)NC(=O)[C@H](C)NC(=O)[C@H](C)NC(=O)[C@H](CCC(N)=O)NC1=O"}, "B2": {"name": "mt-128 (peptide)", "peptide": "HSQGTFTSDYSKYLDEIHQKDFIAWLMNGGPSSGAPPPS-NH2", "modifications": "lactam 16-20; N-terminus assumed", "SMILES": "CC[C@H](C)[C@H](NC(=O)[C@H](Cc1ccccc1)NC(=O)[C@H](CC(=O)O)NC(=O)[C@@H]1CCCCNC(=O)CC[C@H](NC(=O)[C@H](CC(=O)O)NC(=O)[C@H](CC(C)C)NC(=O)[C@H](Cc2ccc(O)cc2)NC(=O)[C@H](CCCCN)NC(=O)[C@H](CO)NC(=O)[C@H](Cc2ccc(O)cc2)NC(=O)[C@H](CC(=O)O)NC(=O)[C@H](CO)NC(=O)[C@@H](NC(=O)[C@H](Cc2ccccc2)NC(=O)[C@@H](NC(=O)CNC(=O)[C@H](CCC(N)=O)NC(=O)[C@H](CO)NC(=O)[C@@H](N)Cc2c[nH]cn2)[C@@H](C)O)[C@@H](C)O)C(=O)N[C@@H]([C@@H](C)CC)C(=O)N[C@@H](Cc2c[nH]cn2)C(=O)N[C@@H](CCC(N)=O)C(=O)N1)C(=O)N[C@@H](C)C(=O)N[C@@H](Cc1c[nH]c2ccccc12)C(=O)N[C@@H](CC(C)C)C(=O)N[C@@H](CCSC)C(=O)N[C@@H](CC(N)=O)C(=O)NCC(=O)NCC(=O)N1CCC[C@H]1C(=O)N[C@@H](CO)C(=O)N[C@@H](CO)C(=O)NCC(=O)N[C@@H](C)C(=O)N1CCC[C@H]1C(=O)N1CCC[C@H]1C(=O)N1CCC[C@H]1C(=O)N[C@@H](CO)C(N)=O"}, "B3": {"name": "mt-124 (peptide)", "peptide": "HSQGTFTSDYSIYMDEIHQKDFVNWLLAQ-NH2", "modifications": "lactam 16-20; N-terminus assumed", "SMILES": "CC[C@H](C)[C@H](NC(=O)[C@H](CO)NC(=O)[C@H](Cc1ccc(O)cc1)NC(=O)[C@H](CC(=O)O)NC(=O)[C@H](CO)NC(=O)[C@@H](NC(=O)[C@H](Cc1ccccc1)NC(=O)[C@@H](NC(=O)CNC(=O)[C@H](CCC(N)=O)NC(=O)[C@H](CO)NC(=O)[C@@H](N)Cc1c[nH]cn1)[C@@H](C)O)[C@@H](C)O)C(=O)N[C@@H](Cc1ccc(O)cc1)C(=O)N[C@@H](CCSC)C(=O)N[C@@H](CC(=O)O)C(=O)N[C@H]1CCC(=O)NCCCC[C@@H](C(=O)N[C@@H](CC(=O)O)C(=O)N[C@@H](Cc2ccccc2)C(=O)N[C@H](C(=O)N[C@@H](CC(N)=O)C(=O)N[C@@H](Cc2c[nH]c3ccccc23)C(=O)N[C@@H](CC(C)C)C(=O)N[C@@H](CC(C)C)C(=O)N[C@@H](C)C(=O)N[C@@H](CCC(N)=O)C(N)=O)C(C)C)NC(=O)[C@H](CCC(N)=O)NC(=O)[C@H](Cc2c[nH]cn2)NC(=O)[C@H]([C@@H](C)CC)NC1=O"}, "B4": {"name": "mt-125 (peptide)", "peptide": "YSQGTFTSDYSIYMDEIHQKDFVNWLLAQ-NH2", "modifications": "lactam 16-20; N-terminus assumed", "SMILES": "CC[C@H](C)[C@H](NC(=O)[C@H](CO)NC(=O)[C@H](Cc1ccc(O)cc1)NC(=O)[C@H](CC(=O)O)NC(=O)[C@H](CO)NC(=O)[C@@H](NC(=O)[C@H](Cc1ccccc1)NC(=O)[C@@H](NC(=O)CNC(=O)[C@H](CCC(N)=O)NC(=O)[C@H](CO)NC(=O)[C@@H](N)Cc1ccc(O)cc1)[C@@H](C)O)[C@@H](C)O)C(=O)N[C@@H](Cc1ccc(O)cc1)C(=O)N[C@@H](CCSC)C(=O)N[C@@H](CC(=O)O)C(=O)N[C@H]1CCC(=O)NCCCC[C@@H](C(=O)N[C@@H](CC(=O)O)C(=O)N[C@@H](Cc2ccccc2)C(=O)N[C@H](C(=O)N[C@@H](CC(N)=O)C(=O)N[C@@H](Cc2c[nH]c3ccccc23)C(=O)N[C@@H](CC(C)C)C(=O)N[C@@H](CC(C)C)C(=O)N[C@@H](C)C(=O)N[C@@H](CCC(N)=O)C(N)=O)C(C)C)NC(=O)[C@H](CCC(N)=O)NC(=O)[C@H](Cc2c[nH]cn2)NC(=O)[C@H]([C@@H](C)CC)NC1=O"}, "B5": {"name": "mt-141 (peptide)", "peptide": "YSQGTFTSDYSKYMDEQAAKEFVNWLLAGGPSSGAPPPS-NH2", "modifications": "lactam 16-20; N-terminus assumed", "SMILES": "CSCC[C@H](NC(=O)[C@H](Cc1ccc(O)cc1)NC(=O)[C@H](CCCCN)NC(=O)[C@H](CO)NC(=O)[C@H](Cc1ccc(O)cc1)NC(=O)[C@H](CC(=O)O)NC(=O)[C@H](CO)NC(=O)[C@@H](NC(=O)[C@H](Cc1ccccc1)NC(=O)[C@@H](NC(=O)CNC(=O)[C@H](CCC(N)=O)NC(=O)[C@H](CO)NC(=O)[C@@H](N)Cc1ccc(O)cc1)[C@@H](C)O)[C@@H](C)O)C(=O)N[C@@H](CC(=O)O)C(=O)N[C@H]1CCC(=O)NCCCC[C@@H](C(=O)N[C@@H](CCC(=O)O)C(=O)N[C@@H](Cc2ccccc2)C(=O)N[C@H](C(=O)N[C@@H](CC(N)=O)C(=O)N[C@@H](Cc2c[nH]c3ccccc23)C(=O)N[C@@H](CC(C)C)C(=O)N[C@@H](CC(C)C)C(=O)N[C@@H](C)C(=O)NCC(=O)NCC(=O)N2CCC[C@H]2C(=O)N[C@@H](CO)C(=O)N[C@@H](CO)C(=O)NCC(=O)N[C@@H](C)C(=O)N2CCC[C@H]2C(=O)N2CCC[C@H]2C(=O)N2CCC[C@H]2C(=O)N[C@@H](CO)C(N)=O)C(C)C)NC(=O)[C@H](C)NC(=O)[C@H](C)NC(=O)[C@H](CCC(N)=O)NC1=O"}, "B6": {"name": "mt-129 (peptide)", "peptide": "YSQGTFTSDYSKYLDEIHQKDFIAWLMNGGPSSGAPPPS-NH2", "modifications": "lactam 16-20; N-terminus assumed", "SMILES": "CC[C@H](C)[C@H](NC(=O)[C@H](Cc1ccccc1)NC(=O)[C@H](CC(=O)O)NC(=O)[C@@H]1CCCCNC(=O)CC[C@H](NC(=O)[C@H](CC(=O)O)NC(=O)[C@H](CC(C)C)NC(=O)[C@H](Cc2ccc(O)cc2)NC(=O)[C@H](CCCCN)NC(=O)[C@H](CO)NC(=O)[C@H](Cc2ccc(O)cc2)NC(=O)[C@H](CC(=O)O)NC(=O)[C@H](CO)NC(=O)[C@@H](NC(=O)[C@H](Cc2ccccc2)NC(=O)[C@@H](NC(=O)CNC(=O)[C@H](CCC(N)=O)NC(=O)[C@H](CO)NC(=O)[C@@H](N)Cc2ccc(O)cc2)[C@@H](C)O)[C@@H](C)O)C(=O)N[C@@H]([C@@H](C)CC)C(=O)N[C@@H](Cc2c[nH]cn2)C(=O)N[C@@H](CCC(N)=O)C(=O)N1)C(=O)N[C@@H](C)C(=O)N[C@@H](Cc1c[nH]c2ccccc12)C(=O)N[C@@H](CC(C)C)C(=O)N[C@@H](CCSC)C(=O)N[C@@H](CC(N)=O)C(=O)NCC(=O)NCC(=O)N1CCC[C@H]1C(=O)N[C@@H](CO)C(=O)N[C@@H](CO)C(=O)NCC(=O)N[C@@H](C)C(=O)N1CCC[C@H]1C(=O)N1CCC[C@H]1C(=O)N1CCC[C@H]1C(=O)N[C@@H](CO)C(N)=O"}}, "note": "Bridges are numbered along the chain shown (N, C = ends). Where no end group is shown, it is not given here."}
{"target": "glucagon receptor (UniProt P47871 26-477, limits assumed)", "sequence (P47871 26-477 limits assumed)": "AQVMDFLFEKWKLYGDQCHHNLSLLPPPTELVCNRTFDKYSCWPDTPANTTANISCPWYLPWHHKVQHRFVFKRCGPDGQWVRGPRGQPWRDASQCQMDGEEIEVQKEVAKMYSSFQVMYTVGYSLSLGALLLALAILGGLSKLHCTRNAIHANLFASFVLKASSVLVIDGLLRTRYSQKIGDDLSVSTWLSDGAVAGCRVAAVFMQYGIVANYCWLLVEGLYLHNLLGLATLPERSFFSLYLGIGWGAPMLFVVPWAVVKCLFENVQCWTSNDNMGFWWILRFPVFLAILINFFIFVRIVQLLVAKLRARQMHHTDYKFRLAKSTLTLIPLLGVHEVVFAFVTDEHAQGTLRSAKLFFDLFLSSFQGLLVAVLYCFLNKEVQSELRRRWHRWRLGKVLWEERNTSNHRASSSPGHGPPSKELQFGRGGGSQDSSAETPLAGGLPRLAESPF", "assay": "cell-based or functional assay", "units": {"EC50": "nM", "relative activity": "%"}}
{"binder": "B1", "EC50": 0.149, "relative activity": 131}
{"binder": "B2", "EC50": 0.773, "relative activity": 11.1}
{"binder": "B3", "EC50": 2.43, "relative activity": 8.64}
{"binder": "B4", "EC50": 5.74, "relative activity": 9.06}
{"binder": "B5", "EC50": 0.15, "relative activity": 269}
{"binder": "B6", "EC50": 0.952, "relative activity": 17.3}
{"target": "GLP-1 receptor (UniProt P43220 24-463, limits assumed)", "assay": "cell-based or functional assay", "units": {"EC50": "nM", "relative activity": "%"}}
{"binder": "B1", "EC50": 0.068, "relative activity": 49.6}
{"binder": "B2", "EC50": 0.12, "relative activity": 33.3}
{"binder": "B3", "EC50": 0.04, "relative activity": 100}
{"binder": "B4", "EC50": 1.26, "relative activity": 3.17}
{"binder": "B5", "EC50": 0.16, "relative activity": 36.8}
{"binder": "B6", "EC50": 4.07, "relative activity": 1.12}
{"target": "T1, GIP receptor (UniProt P48546 22-466)", "T1 sequence (looked up)": "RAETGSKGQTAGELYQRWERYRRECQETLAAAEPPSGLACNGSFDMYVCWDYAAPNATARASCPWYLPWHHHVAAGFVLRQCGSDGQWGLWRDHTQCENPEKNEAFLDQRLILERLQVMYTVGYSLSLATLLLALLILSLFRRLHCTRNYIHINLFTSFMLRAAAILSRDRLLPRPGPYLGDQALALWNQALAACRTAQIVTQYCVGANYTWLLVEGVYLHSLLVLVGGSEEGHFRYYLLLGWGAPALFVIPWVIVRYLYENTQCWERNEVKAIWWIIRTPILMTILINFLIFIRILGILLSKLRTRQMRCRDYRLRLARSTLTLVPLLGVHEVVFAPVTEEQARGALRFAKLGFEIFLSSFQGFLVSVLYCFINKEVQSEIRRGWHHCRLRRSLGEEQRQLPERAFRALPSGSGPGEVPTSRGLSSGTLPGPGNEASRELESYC", "assay": "cell-based or functional assay", "units": {"EC50": "nM", "relative activity": "%"}}
{"binder": "B1", "EC50": 0.366, "relative activity": 12.8}
{"binder": "B2", "EC50": 14.6, "relative activity": 0.42}
{"binder": "B3", "EC50": 5.79, "relative activity": 0.95}
{"binder": "B4", "EC50": 0.275, "relative activity": 19.6}
{"binder": "B5", "EC50": 0.747, "relative activity": 10}
{"binder": "B6", "EC50": 2.88, "relative activity": 2.06}
